The results in this text go back to publication PMC5356265, “Increased enzymatic hydrolysis of sugarcane bagasse by a novel glucose- and xylose-stimulated β-glucosidase from Anoxybacillus flavithermus subsp. yunnanensis E13^T” (BMC Biochemistry, 2017).

The term Km denotes the substrate concentration at which the rate is half of its maximum.

In this data set the test system is T1, O=[N+]([O-])c1ccc(O[C@@H]2O[C@H](CO)[C@@H](O)[C@H](O)[C@H]2O)cc1.
T1 construct: full-length GH1 enzyme, no signal peptide; gene 1347 bp (448 residues deduced), 52 kDa; pET22b in E. coli BL21 (DE3), heat treatment and Ni-NTA purified
Put plainly: p-nitrophenol release at A410, Lineweaver-Burk. Type of data set: biochemical, Anoxybacillus flavithermus subsp. yunnanensis. To be noted: Na2HPO4-citric acid buffer pH 7.0, 60 °C, no added sugar.

For the substance “BglP (Bglp) (Anoxybacillus flavithermus subsp. yunnanensis)”, the Km amounted to 290 ± 10 µM.
